In patent publication US20140186363A1 (UNIVERSITY OF ZURICH, published 2014):

Legend:
[1] = molecular target: T1, MAGEA3 peptide no 14; assay: peptide ELISA (coated 20mer)
T1 construct: also called MAGEA3 aa 131-150
T1 peptide: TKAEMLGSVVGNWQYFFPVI
Procedure: (§1) 20mer peptides spanning the entire MAGEA3 protein with 10 aa overlaps shared by each adjacent peptide (Peptides&Elephants, Nuthetal, Germany) were used to coat Maxisorp ELISA plates (Nunc, Rochester, N.Y.). As control a 20mer peptide representing amino acids 40-21 from the NY-ESO-1 protein was used (rev). The numbering of amino acids of MAGEA3 is based on SEQ ID No:41.
(§2) Human recombinant antibody was used at a concentration of 1 μg/ml. Bound human antibody was detected using horseradish peroxidase-conjugated goat anti-human IgG Fc-gamma specific antibodies (Jackson ImmunoResearch, Europe Ltd., Cambridgeshire, UK).

[2] = molecular target: T2, MAGEA3 peptide no 11; assay: peptide ELISA (coated 20mer)
T2 construct: also called MAGEA3 aa 101-120
T2 peptide: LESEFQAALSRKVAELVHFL
Procedure: as §1, §2

[3] = molecular target: T3, MAGEA3 peptide no 30; assay: peptide ELISA (coated 20mer)
T3 construct: also called MAGEA3 aa 291-310
T3 peptide: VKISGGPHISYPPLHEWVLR
Procedure: as §1, §2

[4] = molecular target: T4, MAGEA3 peptide no 23; assay: peptide ELISA (coated 20mer)
T4 construct: also called MAGEA3 aa 221-240
T4 peptide: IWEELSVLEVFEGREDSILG
Procedure: as §1, §2

[5] = molecular target: T5, MAGEA3 peptide no 15; assay: peptide ELISA (coated 20mer)
T5 construct: also called MAGEA3 aa 141-160
T5 peptide: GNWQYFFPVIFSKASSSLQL
Procedure: as §1, §2

[6] = molecular target: T6, MAGEA3 peptide no 21; assay: peptide ELISA (coated 20mer)
T6 construct: also called MAGEA3 aa 201-220
T6 peptide: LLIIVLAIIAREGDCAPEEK
Procedure: as §1, §2

[7] = molecular target: T7, MAGEA3 peptide no 9; assay: peptide ELISA (coated 20mer)
T7 construct: also called MAGEA3 aa 81-100
T7 peptide: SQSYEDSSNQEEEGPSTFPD
Procedure: as §1, §2

[8] = molecular target: T8, MAGEA3 peptide no 26; assay: peptide ELISA (coated 20mer)
T8 construct: also called MAGEA3 aa 251-270
T8 peptide: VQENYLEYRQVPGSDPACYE
Procedure: as §1, §2

[9] = molecular target: T9, MAGEA3 peptide no 28; assay: peptide ELISA (coated 20mer)
T9 construct: also called MAGEA3 aa 271-290
T9 peptide: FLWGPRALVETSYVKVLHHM
Procedure: as §1, §2

[10] = molecular target: T10, MAGEA3 peptide no 7; assay: peptide ELISA (coated 20mer)
T10 construct: also called MAGEA3 aa 61-80
T10 peptide: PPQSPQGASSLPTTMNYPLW
Procedure: as §1, §2

[11] = molecular target: T11, MAGEA3 peptide no 8; assay: peptide ELISA (coated 20mer)
T11 construct: also called MAGEA3 aa 71-90
T11 peptide: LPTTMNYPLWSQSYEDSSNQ
Procedure: as §1, §2

[12] = molecular target: T12, MAGEA3 peptide no 10; assay: peptide ELISA (coated 20mer)
T12 construct: also called MAGEA3 aa 91-110
T12 peptide: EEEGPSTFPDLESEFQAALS
Procedure: as §1, §2

[13] = molecular target: T13, MAGEA3 peptide no 18; assay: peptide ELISA (coated 20mer)
T13 construct: also called MAGEA3 aa 171-190
T13 peptide: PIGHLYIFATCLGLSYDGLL
Procedure: as §1, §2

[14] = molecular target: T14, MAGEA3 peptide no 20; assay: peptide ELISA (coated 20mer)
T14 construct: also called MAGEA3 aa 191-210
T14 peptide: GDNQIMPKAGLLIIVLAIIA
Procedure: as §1, §2

[15] = molecular target: T15, MAGEA3 peptide no 13; assay: peptide ELISA (coated 20mer)
T15 construct: also called MAGEA3 aa 121-140
T15 peptide: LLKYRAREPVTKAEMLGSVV
Procedure: as §1, §2

[16] = molecular target: T16, MAGEA3 peptide no 3; assay: peptide ELISA (coated 20mer)
T16 construct: also called MAGEA3 aa 21-40
T16 peptide: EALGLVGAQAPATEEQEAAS
Procedure: as §1, §2

[17] = molecular target: T17, MAGEA3 peptide no 24; assay: peptide ELISA (coated 20mer)
T17 construct: also called MAGEA3 aa 231-250
T17 peptide: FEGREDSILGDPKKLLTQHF
Procedure: as §1, §2

[18] = molecular target: T18, MAGEA3 peptide no 29; assay: peptide ELISA (coated 20mer)
T18 construct: also called MAGEA3 aa 281-300
T18 peptide: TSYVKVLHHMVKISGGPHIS
Procedure: as §1, §2

[19] = molecular target: T19, MAGEA3 peptide no 27; assay: peptide ELISA (coated 20mer)
T19 construct: also called MAGEA3 aa 261-280
T19 peptide: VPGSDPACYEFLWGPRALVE
Procedure: as §1, §2

[20] = molecular target: T20, MAGEA3 peptide no 6; assay: peptide ELISA (coated 20mer)
T20 construct: also called MAGEA3 aa 51-70
T20 peptide: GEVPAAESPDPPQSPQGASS
Procedure: as §1, §2

[21] = molecular target: T4, MAGEA3 peptide no 23; assay: peptide ELISA (coated 20mer) [Figure 1]
Procedure: as §1, §2

[22] = molecular target: T6, MAGEA3 peptide no 21; assay: peptide ELISA (coated 20mer) [Figure 1]
Procedure: as §1, §2

[23] = molecular target: T21, MAGEA3 peptide no 2; assay: peptide ELISA (coated 20mer) [Figure 1]
T21 construct: also called MAGEA3 aa 11-30
T21 peptide: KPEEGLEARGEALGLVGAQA
Procedure: as §1, §2

[24] = molecular target: T9, MAGEA3 peptide no 28; assay: peptide ELISA (coated 20mer) [Figure 1]
Procedure: as §1, §2

[25] = molecular target: T11, MAGEA3 peptide no 8; assay: peptide ELISA (coated 20mer) [Figure 1]
Procedure: as §1, §2

[26] = molecular target: T13, MAGEA3 peptide no 18; assay: peptide ELISA (coated 20mer) [Figure 1]
Procedure: as §1, §2

[27] = molecular target: T16, MAGEA3 peptide no 3; assay: peptide ELISA (coated 20mer) [Figure 1]
Procedure: as §1, §2

[28] = molecular target: T18, MAGEA3 peptide no 29; assay: peptide ELISA (coated 20mer) [Figure 1]
Procedure: as §1, §2

[29] = molecular target: T22, MAGEA3 (human, UniProt P43357 1-314); assay: ELISA, plate coated with recombinant MAGEA3, serial dilution of antibody [Figure 4]
T22 construct: also called recombinant MAGEA3; MAGEA3-protein

B1: 32H2 (antibody, V domains shown)
VH: QVQLVESGGGVVQPGRSLRLSCAASGFTFSSNAMHWVRQAPGKGLEWVAVISHDGSNKYYADSVKGRFTISRDNSKNTLYLQMNSLRAEDTAVYYCARDGSGSYFNLDYWGQGTLVTVSS
VL: QSALTQPASVSGSPGQSITISCTGTSSDVGGYNYVSWYQQHPGKAPKLMIYEVSNRPSGVSNRFSGSKSGNTASLTISGLQAEDEADYYCSSYTSSSTLVFGTGTKVTVL
notes: Patient-derived human antibody made recombinantly; also called human monoclonal antibody 32H2
binding result [1]: no binding (tested: 1 µg/ml) | binding result [2]: no binding (tested: 1 µg/ml) | binding result [3]: no binding (tested: 1 µg/ml) | binding result [4]: no binding (tested: 1 µg/ml) | binding result [5]: no binding (tested: 1 µg/ml) | binding result [6]: no binding (tested: 1 µg/ml) | binding result [7]: no binding (tested: 1 µg/ml) | binding result [8]: no binding (tested: 1 µg/ml) | binding result [9]: no binding (tested: 1 µg/ml) | binding result [10]: no binding (tested: 1 µg/ml) | binding result [11]: no binding (tested: 1 µg/ml) | binding result [12]: no binding (tested: 1 µg/ml) | binding result [13]: no binding (tested: 1 µg/ml) | binding result [14]: no binding (tested: 1 µg/ml) | binding result [15]: no binding (tested: 1 µg/ml) | binding result [16]: no binding (tested: 1 µg/ml) | binding result [17]: no binding (tested: 1 µg/ml) | binding result [18]: no binding (tested: 1 µg/ml) | binding result [19]: no binding (tested: 1 µg/ml) | binding result [20]: no binding (tested: 1 µg/ml)

B2: 102G10 (antibody, V domains shown)
VH: EVQLVESGGGLVKPGGSLRLSCAASGFTFSGNSMNWVRQAPGKGLEWVSSISSSSGYIYYADSVKGRFTVSRDNAKNSLYLQMNSLRAEDTAVYYCATWPVTTARVGYWGQGTLVTVSS
VL: QSVLTQPPSASGTPGQRVTISCSGSSSNIGSNYVYWHQQLPGTAPKLLIYRHDQRPSGVPDRFSGSKSGTSASLAISGLRSEDEADYYCAAWDDSLSAWVFGGGTKLTVL
notes: Patient-derived human antibody made recombinantly; also called human monoclonal antibody 102G10
binding result [21]: no binding (tested: 1 µg/ml) | binding result [22]: no binding (tested: 1 µg/ml) | binding result [23]: no binding (tested: 1 µg/ml) | binding result [24]: no binding (tested: 1 µg/ml) | binding result [25]: no binding (tested: 1 µg/ml) | binding result [26]: no binding (tested: 1 µg/ml) | binding result [27]: no binding (tested: 1 µg/ml) | binding result [28]: no binding (tested: 1 µg/ml)

B3: 34G9 (antibody, V domains shown)
VH: EVQLEESGGDLVQPGGSLRLSCAASGFTFSHYWMHWVRQAPGKGLVWVSRINSDGSSTSYADSVKGRFTISRDNAKNTLYLQMNSLRAEDTAVYYCARIGSDGYNYDFWGQGTLVTVSS
VL: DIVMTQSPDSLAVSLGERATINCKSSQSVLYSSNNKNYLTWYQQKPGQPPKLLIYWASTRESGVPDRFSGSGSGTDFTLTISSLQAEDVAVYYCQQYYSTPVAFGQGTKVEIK
notes: Patient-derived human antibody made recombinantly; also called human monoclonal antibody 34G9
EC50 [29]: 0.045 nM | EC50 (read off the curve) [29]: ~0.04 nM | binding result [21]: no binding (tested: 1 µg/ml) | binding result [22]: no binding (tested: 1 µg/ml) | binding result [23]: no binding (tested: 1 µg/ml) | binding result [24]: no binding (tested: 1 µg/ml) | binding result [25]: no binding (tested: 1 µg/ml) | binding result [26]: no binding (tested: 1 µg/ml) | binding result [27]: no binding (tested: 1 µg/ml) | binding result [28]: no binding (tested: 1 µg/ml)
